# Assay results reported in publication PMC7495503.
# T1: Pgi8Cas13b (Porphyromonas gingivalis ATCC 33277, UniProt B2RL97 1-1119)
# T1 sequence: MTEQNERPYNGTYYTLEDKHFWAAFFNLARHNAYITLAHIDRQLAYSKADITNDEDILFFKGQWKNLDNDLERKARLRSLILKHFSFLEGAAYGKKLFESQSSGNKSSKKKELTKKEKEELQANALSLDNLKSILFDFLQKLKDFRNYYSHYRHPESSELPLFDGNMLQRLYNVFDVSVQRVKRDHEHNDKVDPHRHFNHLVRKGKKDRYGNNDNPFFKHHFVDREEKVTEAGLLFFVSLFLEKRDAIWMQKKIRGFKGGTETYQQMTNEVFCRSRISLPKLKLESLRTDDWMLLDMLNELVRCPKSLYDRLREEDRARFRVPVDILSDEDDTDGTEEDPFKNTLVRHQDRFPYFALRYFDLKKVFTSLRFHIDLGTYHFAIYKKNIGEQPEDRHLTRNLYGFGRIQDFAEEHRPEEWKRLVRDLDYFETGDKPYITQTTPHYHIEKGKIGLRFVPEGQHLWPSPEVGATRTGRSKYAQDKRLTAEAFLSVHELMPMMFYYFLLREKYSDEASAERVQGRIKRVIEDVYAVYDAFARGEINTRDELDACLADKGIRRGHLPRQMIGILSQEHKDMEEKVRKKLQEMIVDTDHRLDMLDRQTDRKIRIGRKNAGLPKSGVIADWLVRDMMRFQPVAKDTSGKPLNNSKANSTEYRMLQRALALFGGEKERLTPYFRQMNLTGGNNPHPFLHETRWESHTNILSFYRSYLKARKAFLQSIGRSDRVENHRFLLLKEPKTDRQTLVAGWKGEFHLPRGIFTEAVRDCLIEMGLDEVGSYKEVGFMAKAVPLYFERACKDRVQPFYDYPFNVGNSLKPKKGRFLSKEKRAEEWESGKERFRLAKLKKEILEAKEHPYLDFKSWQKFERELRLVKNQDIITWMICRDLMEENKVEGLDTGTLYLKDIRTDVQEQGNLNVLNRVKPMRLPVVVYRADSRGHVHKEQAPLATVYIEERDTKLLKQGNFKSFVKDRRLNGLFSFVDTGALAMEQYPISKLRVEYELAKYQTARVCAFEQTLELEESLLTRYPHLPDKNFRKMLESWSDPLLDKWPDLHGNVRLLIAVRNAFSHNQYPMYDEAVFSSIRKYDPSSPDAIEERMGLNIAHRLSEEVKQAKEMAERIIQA
# B1: Pgi8 crRNA (SP2), Cy5 body-labeled (structured_RNA)
# RNA: GCAAGUGGAAUUAAUCUUUUUUCUUCUUUACGUUGGAUCUUCCCUCUAUUCGAAGGGUACACACAAC
# Target: T1, Pgi8Cas13b
# Experiment: EMSA
binder,measurement,value
B1,Kd,0.018 µM
